Results published in publication PMC9372576.

Tests used:
[1] = target: GvpA fused to NGFP or CGFP (Halobacterium salinarum) (UniProt P08958); test: split reporter (BiFC, NanoBiT); split-GFP of A/A with untagged GvpC, GvpN and GvpO co-produced under the P2 promoter (A/A + CNO)
[2] = target: GvpA fused to NGFP or CGFP (Halobacterium salinarum) (UniProt P08958); test: split reporter (BiFC, NanoBiT); split-GFP (NGFP and CGFP of salt-stable mGFP2) in Hfx. volcanii transformants, 24 h 37 °C then 24 h 30 °C; relative fluorescence (rf) against the wild type; the highest of eight tag combinations is given

Sequence of GvpA fused to NGFP or CGFP (Halobacterium salinarum) (P08958 whole entry, the tested form may be a part): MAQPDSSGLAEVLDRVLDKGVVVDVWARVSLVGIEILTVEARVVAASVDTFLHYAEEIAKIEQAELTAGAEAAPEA

| Substance | relative fluorescence (rf) [1] | relative fluorescence (rf) [2] |
| --- | --- | --- |
| GvpA fused to NGFP or CGFP (from UniProt P08958 1-76) (natural protein) | 5.12 LAU/mm^2 | < 2 LAU/mm^2 |
| GvpC fused to NGFP or CGFP (from UniProt P24574 1-382) (natural protein) |  | < 2 LAU/mm^2 |
